The assay concerns the target PA63 ligand (truncated 63 kDa portion of anthrax protective antigen), reagent conjugated with FITC (Bacillus anthracis, UniProt P13423 197-764). The assay is described as follows: flow cytometry, FITC-conjugated PA63 on cell lines expressing ANTXR1 and ANTXR2. For orientation: In flow cytometry, cells or beads pass a laser one at a time.

B1: ANTXR1 (anthrax toxin receptor 1) (receptor)
chain: not shown
notes: whole, on cells
B1: the binding result was “binds”.

These data come from patent US20220372084A1 (MJCELL BIO, published 2022).
